Source: paper PMC3577348 (Science (New York, N.Y.), 2012)

T1: mini-XWnt8 (C-terminal fragment of XWnt8, residues 248-338) displayed on yeast (Xenopus, UniProt P28026 248-338)
T1 sequence (looked up): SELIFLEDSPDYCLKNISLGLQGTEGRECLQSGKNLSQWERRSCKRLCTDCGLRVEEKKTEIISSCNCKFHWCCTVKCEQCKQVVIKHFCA

B1: mouse Fz8-CRD (residues 32-151), biotinylated (domain or fragment, UniProt Q61091 32-151, looked up)
chain: ELACQEITVPLCKGIGYNYTYMPNQFNHDTQDEAGLEVHQFWPLVEIQCSPDLKFFLCSMYTPICLEDYKKPLPPCRSVCERAKAGCAPLMRQYGFAWPDRMRCDRLPEQGNPDTLCMDY
modifications: biotin on the BAP-tag (enzymatic, GST-BirA ligase)
B2: human Fz5-CRD (residues 30-150), biotinylated (domain or fragment, UniProt Q13467 30-150, looked up)
chain: APVCQEITVPMCRGIGYNLTHMPNQFNHDTQDEAGLEVHQFWPLVEIQCSPDLRFFLCSMYTPICLPDYHKPLPPCRSVCERAKAGCSPLMRQYGFAWPERMSCDRLPVLGRDAEVLCMDY
modifications: biotin on the BAP-tag (enzymatic, GST-BirA ligase)

Tests used:
[1] = molecular target: T1, mini-XWnt8 (C-terminal fragment of …); experiment: flow cytometry on cells
[2] = molecular target: B2; experiment: SPR
[3] = molecular target: B1; experiment: SPR

Row | percent of yeast stained [1] [%] | Kd [2] [nM] | Kd [3] [nM] | Binder
1 | ~50 |  |  | B1
2 | ~30 |  |  | B2
3 |  | ~3500 | ~2400 | soluble mini-XWnt8 (residues 248-338) with C-terminal six-histidine tag (domain or fragment, Xenopus, UniProt P28026 248-338, looked up) SELIFLEDSPDYCLKNISLGLQGTEGRECLQSGKNLSQWERRSCKRLCTDCGLRVEEKKTEIISSCNCKFHWCCTVKCEQCKQVVIKHFCA
